Test results published in publication PMC11357992, “Non-invasive mapping of systemic neutrophil dynamics upon cardiovascular injury” (Nature Cardiovascular Research, 2023).
Where “and” joins values, the source holds several entries; their conditions need not be identical. Equal values may be shown once. Where no end group is shown, it is not given here. Side-chain parts run from the residue outwards. rhodamine‑labelled PEGylated perfluoro‑15‑crown‑5 ether nanoemulsion = not defined here; carboxyfluorescein = N-terminal fluorescence label (CF)

What was measured:
[1] = Cryo-transmission electron microscopy of PFCs (diameter, liposomes); assay type: physicochemical; design: key: % of PFCs per 25 nm diameter class in cryo-TEM images; settings: cryo-TEM size distribution; panel C raw data, single replicates #1-#3
Experimental: PFCs were diluted with sample buffer to minimize particle aggregation and therefore enable proper size measurements, which were carried out as previously described.
Extended Data Fig. 8 Physicochemical properties and cellular uptake of ^hNPPFCs. a, Cellular uptake of ^hNPPFCs by human monocyte subsets and neutrophils: Human immune cells isolated from the blood of healthy volunteers were incubated with ^hNPPFCs. Subsequently, cells were stained with CD11b, CD14 and CD16 to differentiate between neutrophils (red), classical monocytes (gray) and non-classical monocytes (blue) and the cells were analyzed by flow cytometry. The cellular uptake of ^hNPPFCs was determined under unstimulated conditions (top) and after treatment with 1 µg/ml LPS (bottom). b, Physicochemical properties of the generated nanotracers: Characterization of size, size distribution and ζ potential of ^MalPFCs and targeting PFCs (^hNPPFCs, ^ConPFCs) by dynamic light scattering (DLS). The rhodamine fluorescence signal of the PCS was determined by IVIS imaging and the ^19F content by ^19F MRI. c-e, Cryo transmission electron microscopy of the generated nanotracers: c, Cryo transmission electron microscopy (cryo-TEM) of ^hNPPFCs and ^ConPFCs. Graphs: The diameter of the PFCs was determined manually from three images categorized into 25 nm groups. […] Data are derived from three images for ^hNPPFCs and ^ConPFCs each. d, Box plot (box and whiskers; min to max) of the diameter of ^ConPFCs/^hNPPFCs calculated from cryo-TEM images. e, Relative amount of liposomes (%) in individual cryo-TEM images. The number of PFCs and liposomes was manually determined (n = 4/5 images). Red arrows in the cryo-TEM images indicate liposomes. Data are mean values ± SD of n = 5-6 (a), n = 3-6 (b), n = 3 (c), n = 3 (d) and n = 6 (e) independent experiments; *** = p < 0.001, verified by one-way ANOVA (a). Source data

[2] = Liver serum markers after PFC injection; assay type: in vivo, mouse; settings: i.v. over 3 consecutive days, 24 h after last injection
Experimental: ^ConPFCs, ^mNPPFCs (each at 1 mM per kg BW) or saline were injected i.v. over 3 consecutive days. Twenty-four hours after the last injection, mice were killed, and blood samples were withdrawn to determine GLDH, AST, ALP, ALT and bilirubin levels by standard clinical procedures. Furthermore, the liver and spleen were dissected, fixed in formalin and snap frozen. Subsequently, 4-µm cryosections were cut and stained with hematoxylin and eosin as described previously.
Extended Data Fig. 3 Assessment of ^mNPPFC/^ConPFC biodistribution, liver serum markers and histology of liver and spleen. a, Biodistribution of intravenously injected ^mNPPFCs was determined via ^19F MRI measurements at distinct time points after injection (1, 3, 6 and 24 h after injection). Shown are quantification of fluorine signal intensities in the blood, liver and spleen indicating a fast wash-out from the blood accompanied by a strong influx into the liver while signal intensities in the spleen were constant over the entire observation period; a.u. = arbitrary units. b, Serum levels of GLDH (glutamate dehydrogenase), AST (aspartate aminotransferase), ALP (alkaline phosphatase), ALT (alanine aminotransferase) and bilirubin after intravenous application of NaCl as control, ^ConPFCs or ^mNPPFCs. c + d, 4 µm sections of liver (C) and spleen (D) stained with hematoxylin and eosin. Organs were excised and processed for histology 24 h post injection of NaCl (upper row), ^ConPFCs (middle), ^mNPPFCs (lower). Representative liver/spleen images of organs from three different animals are shown. Scale bars indicate 100 µm. Data are mean values ± SD of n = 6 (a), n = 4-6 (b) and n = 6 (c + d) independent experiments. Source data

infarcted heart = experiment: Cardiac 19F MRI signal after MI (in vivo, time course, correlation with LGE); design: species or system mouse
Experimental: For labeling of neutrophils before MI, mice were anesthetized (1.5% isoflurane) and 1 mmol per kg BW PFCs were injected intravenously via the tail vein on 3 consecutive days. Induction of MI was essentially carried out as previously described. For inhibiting the egress of neutrophils from the bone marrow in a subset of experiments, a cocktail of neutralizing antibodies was injected i.p. 1 h before and 4 h after MI (CXCL1, CXCL2, G-CSF, GM-CSF, 50 µg each, Thermo Fisher). To generate neutropenic mice, 48 and 24 h before MI, 500 µg of the Ly6G-depletion antibody (BioXcell, clone 1A8) was injected i.p. in independent experiments.
All experiments were performed with a vertical 9.4 T Bruker AVANCE^III Wide Bore NMR spectrometer (Bruker) driven by ParaVision 5.1 and operating at frequencies of 400.21 MHz for ^1H measurements and 376.54 MHz for ^19F measurements using a Bruker microimaging unit, Micro2.5, with actively shielded gradient sets (1.5 T m^−1). Data were acquired using a 25-mm quadrature ^19F resonator with one channel tunable to both ^1H and ^19F. Mice were anesthetized with 1.5% isoflurane and kept at 37 °C. After acquisition of morphological ^1H images, the resonator was tuned to ^19F, and anatomically matching ^19F images were recorded essentially as described previously.
Images of mouse hearts were acquired in short-axis orientation using a retrospectively triggered fast low-angle shot cine sequence (IntragateFLASH, Bruker) as described previously. Thereafter, hearts were excised, washed and fixed with PFA for 3D high-resolution post-mortem MRI: ^1H FISP, TR = 4 ms, FOV = 1.00 × 1.00 × 1.00 cm³, matrix = 128 × 64 × 128, tAcq 151 min; ^19F RARE, TR = 2,500 ms, FOV = 1.00 × 1.00 × 1.00 cm³, matrix = 32 × 32 × 32, tAcq = 10 h.

| Substance | share of particles in size class 0-25 [1] | share of particles in size class 25-50 [1] | share of particles in size class 50-75 [1] | share of particles in size class 75-100 [1] | share of particles in size class 100-125 [1] | share of particles in size class 125-150 [1] | share of particles in size class 150-175 [1] | share of particles in size class 175-200 [1] | adverse side effects (liver serum markers, histology of liver and spleen) [2] | fluorine signal (infarcted heart; cardiac 19F MRI after MI, paired with infarct size (correlation), panel A raw data, single animals) | cardiac 19F signal, Sham (infarcted heart; in vivo 19F MRI, Sham (substance not given), single animals) | cardiac 19F signal after MI (infarcted heart; in vivo 19F MRI, mice with MI, panel C raw data, single animals) | cardiac 19F signal, 1h (infarcted heart; time course after MI, 1h, panel B raw data, single animals #1-#6) | cardiac 19F signal, 3h (infarcted heart; time course after MI, 3h, single animals) | cardiac 19F signal, 6h (infarcted heart; time course after MI, 6h, single animals) | cardiac 19F signal, 24h (infarcted heart; time course after MI, 24h, single animals) | cardiac 19F signal, 48h (infarcted heart; time course after MI, 48h, single animals) | cardiac 19F signal, 72h (infarcted heart; time course after MI, 72h, single animals) |
| --- | --- | --- | --- | --- | --- | --- | --- | --- | --- | --- | --- | --- | --- | --- | --- | --- | --- | --- |
| hNPPFCs: PEGylated rhodamine-labeled perfluorocarbon nanoemulsion coupled with human neutrophil-specific peptide hNP (carboxyfluorescein-DLVTSKLQVGGGC; also: C-terminal Cys coupled via maleimide-PEG2000-DSPE to rhodamine-labelled perfluorocarbon nanoemulsion) | 0 | 26.2295 and 23.5714 and 28.5714 | 45.9016 and 51.4286 and 42.0635 | 21.3115 and 20 and 23.8095 | 6.557 and 5 and 5.556 | 0 | 0 | 0 | – | – | – | – | – | – | – | – | – | – |
| mNPPFCs: PEGylated rhodamine-labeled perfluoro-15-crown-5 ether nanoemulsion (maleimide PFCs) coupled with murine neutrophil-specific peptide mNP (carboxyfluorescein-DFYKPMPNLRITGGGC([maleimide‑PEG2000‑DSPE-rhodamine‑labelled PEGylated perfluoro‑15‑crown‑5 ether nanoemulsion]); reading uncertain; also: printed as DFYKPMPNLRIT-GGG-C) | – | – | – | – | – | – | – | – | neither analysis of liver serum markers (GLDH, AST, ALP, ALT, bilirubin) nor histological examination of the liver and spleen revealed any evidence for adverse side effects | 1143260.00 and 189700.00 and 404383.00 and 657147.00 and 1197310.00 and 718148.00 | 79451 and 78829 and 92374 and 48275 and 58581 and 66158 | 325890 and 570535 and 698329 and 580045 and 224755 and 325233 and 312147 and 344837 and 567674 and 107303 and 326458 and 189700 and 404383 and 657147 and 718148 | 153579.00 and 401063.98 and 321133.97 and 254881.37 and 314977.20 and 322448.95 | 445129.00 and 539772.19 and 408267.20 and 394516.08 and 617532.55 | 643519.00 and 466668.95 and 433563.34 and 788134.14 and 582620.85 | 1143260.00 and 608391.86 and 841920.06 and 1092840.00 and 1200290.00 and 913025.41 | 563325.00 and 546371.63 and 835937.39 and 937854.02 and 656412.62 | 589807.00 and 491276.01 and 1221090.00 and 1312800.00 and 804982.61 |
